US20220387572A1 (CRISPR THERAPEUTICS, published 2022)

Biological target: T1, CD70 on human CD70+ renal cell carcinoma cell lines (A498, CD70 high; ACHN, CD70 low) (human, UniProt P32970 1-193)
T1 sequence (looked up): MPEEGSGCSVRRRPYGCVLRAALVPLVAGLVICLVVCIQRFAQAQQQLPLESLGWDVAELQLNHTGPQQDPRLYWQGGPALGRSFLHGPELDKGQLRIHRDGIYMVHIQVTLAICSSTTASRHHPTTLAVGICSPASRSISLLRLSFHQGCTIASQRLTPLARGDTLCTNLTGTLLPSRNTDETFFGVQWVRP
Experiment: cell-based or functional assay

B1: anti-CD70 CAR (CD70B scFv with 41BB), expressed on CTX130 cells (TRAC-/β2M-/CD70-/anti-CD70 CAR+ T cells) (other)
chain: QVQLVQSGAEVKKPGASVKVSCKASGYTFTNYGMNWVRQAPGQGLKWMGWINTYTGEPTYADAFKGRVTMTRDTSISTAYMELSRLRSDDTAVYYCARDYGDYGMDYWGQGTTVTVSSGGGGSGGGGSGGGGSGDIVMTQSPDSLAVSLGERATINCRASKSVSTSGYSFMHWYQQKPGQPPKLLIYLASNLESGVPDRFSGSGSGTDFTLTISSLQAEDVAVYYCQHSREVPWTFGQGTKVEIKSAAAFVPVFLPAKPTTTPAPRPPTPAPTIASQPLSLRPEACRPAAGGAVHTRGLDFACDIYIWAPLAGTCGVLLLSLVITLYCNHRNRKRGRKKLLYIFKQPFMRPVQTTQEEDGCSCRFPEEEEGGCELRVKFSRSADAPAYQQGQNQLYNELNLGRREEYDVLDKRRGRDPEMGGKPRRKNPQEGLYNELQKDKMAEAYSEIGMKGERRRGKGHDGLYQGLSTATKDTYDALHMQALPPR
B1 was tested. Which “cell killing (CellTiter-Glo), TRAC-/β2M-/CD70-/anti-CD70 CAR+ T cells on CD70+ A498 cells, 24 h, T cell:A498 ratios 1:1 and 0.5:1” value did it give?
The value was > 90%.

And the “cell killing (CellTiter-Glo), TRAC-/β2M-/anti-CD70 CAR+ T cells (2xKO) on CD70+ A498 cells, 24 h, T cell:A498 ratios 1:1 and 0.5:1” value?
Its value is < 90%.
